The numbers were not newly measured in publication PMC6121496, which cites them from elsewhere.

Data set [1] addresses KPC-2 beta-lactamase (Klebsiella pneumoniae) (UniProt Q9F663).
The target in data set [2] is TEM-1 beta-lactamase (Escherichia coli) (UniProt P62593).
For data set [3] the target is unchanged. This is another data set of the same source.
Data set [4] has the same target. The source holds these as a separate data set.
The target is the same in data set [5]. This is another data set of the same source.
For data set [6] the target is unchanged. The source holds these as a separate data set.
For data set [7] the target is unchanged. Kind of data set: SPR. (In general: Surface plasmon resonance follows binding to a sensor surface in real time, without labels.)
For data set [8] the target is unchanged. Kind of data set: SPR. This is another data set of the same source.
In data set [9] the target is CTX-M14 beta-lactamase (Escherichia coli). Kind of data set: enzyme inhibition.
Data set [10] has as its target KPC-3 beta-lactamase (Klebsiella pneumoniae) (UniProt Q9F663). Briefly: enzyme inhibition.
Data set [11] addresses PC1 beta-lactamase (Staphylococcus aureus) (UniProt P00807). Briefly: enzyme inhibition.
Chain of UniProt P00807 (P00807 25-281): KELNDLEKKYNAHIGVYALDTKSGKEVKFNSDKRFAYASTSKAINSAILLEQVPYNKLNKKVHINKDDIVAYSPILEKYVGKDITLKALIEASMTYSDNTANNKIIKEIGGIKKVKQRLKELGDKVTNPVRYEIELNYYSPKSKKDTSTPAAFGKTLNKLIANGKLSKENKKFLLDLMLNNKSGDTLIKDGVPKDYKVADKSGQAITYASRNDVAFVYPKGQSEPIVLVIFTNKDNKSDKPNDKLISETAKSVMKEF
Data set [12] concerns the target SHV-1 beta-lactamase (Klebsiella pneumoniae) (UniProt P0AD64). Briefly: enzyme inhibition.
Chain of UniProt P0AD64 (P0AD64 22-286): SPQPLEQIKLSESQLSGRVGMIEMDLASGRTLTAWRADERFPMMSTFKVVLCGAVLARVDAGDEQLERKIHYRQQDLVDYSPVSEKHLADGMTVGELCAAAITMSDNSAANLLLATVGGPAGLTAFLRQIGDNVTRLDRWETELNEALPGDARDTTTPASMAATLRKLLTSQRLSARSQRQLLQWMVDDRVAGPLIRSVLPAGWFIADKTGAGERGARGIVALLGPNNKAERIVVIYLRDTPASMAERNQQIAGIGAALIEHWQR
The target in data set [13] is SME-1 beta-lactamase (Serratia marcescens) (UniProt P52682). Briefly: enzyme inhibition.
Chain of UniProt P52682 (P52682 28-294): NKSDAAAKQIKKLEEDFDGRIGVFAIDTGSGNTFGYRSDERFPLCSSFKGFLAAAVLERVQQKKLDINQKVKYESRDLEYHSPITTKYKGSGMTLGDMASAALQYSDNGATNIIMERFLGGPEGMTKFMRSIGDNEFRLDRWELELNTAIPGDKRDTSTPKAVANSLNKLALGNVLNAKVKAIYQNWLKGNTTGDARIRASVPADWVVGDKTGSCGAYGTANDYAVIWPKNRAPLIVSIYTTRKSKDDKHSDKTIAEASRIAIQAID
The target in data set [14] is PC1 beta-lactamase (Staphylococcus aureus) (UniProt P00807). Briefly: stopped flow fluorometry, ITC.
For data set [15], the target named is TEM-1 beta-lactamase (Escherichia coli) (UniProt P62593). This is another data set of the same source.
Data set [16] shares this target. This is another data set of the same source.

Several values for one entry are separate records, joined by “and”; a condition that tells them apart may be missing. Equal entries are not always repeated. Where two headings read alike, the source gives them in different places.

Chain of UniProt P62593 (P62593 24-286): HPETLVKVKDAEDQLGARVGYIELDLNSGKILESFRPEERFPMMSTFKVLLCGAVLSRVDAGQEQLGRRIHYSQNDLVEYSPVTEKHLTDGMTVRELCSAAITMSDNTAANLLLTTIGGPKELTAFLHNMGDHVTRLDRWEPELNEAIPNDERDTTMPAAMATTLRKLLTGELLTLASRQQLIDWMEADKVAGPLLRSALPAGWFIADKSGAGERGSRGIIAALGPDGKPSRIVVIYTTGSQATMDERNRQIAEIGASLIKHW

A word on the Ki: it is a dissociation constant, usually derived from enzyme kinetics or from competition with a known ligand. As usually defined, the Kd is the concentration at which binding is half-saturated. Take BLIP (from UniProt P35804): the Ki was 1.2 nM in data set [1]; 0.4 nM in data set [2]; 0.5 nM in data set [4]; 810 nM in data set [9]; 0.25 nM in data set [10]; 350 nM in data set [11]. In addition, the Ki was 1100 nM and 1130 nM in data set [12]; 2.4 nM in data set [13]. The Kd is 1.3 nM and 1.7 nM in [3]; 0.3 nM in data set [5]; 0.4 nM in data set [6]; 1.25 nM in data set [7]; 15 nM in data set [8]; 1250 nM in data set [12]. Further, the Kd in data set [14] was 380 nM.

With “BLIP peptide 30-49 (from UniProt P35804)”, in data set [15], the Ki was 352000 nM.

On to BLIP peptide (from UniProt P35804), for which, in data set [16], the Ki was 58000 nM.
